Patent publication US20240279356A1 (Xencor, published 2024)
Numbering of substitutions follows the chain as printed. Numbers in names are those of the source.

B1: XENP32553 (bispecific antibody)
Fab-Fc heavy chain (anti-MSLN VH): QVQLVQSGAEVKKPGASVKVSCKASGYTFTSYWMHWVRQAPGQGLEWMGMINPNSDNTIYYEKFQGRVTMTVDKSISTAYMELSRLRSDDTAVYYCAIIITPVVPKFDYWGQGTLVTVSSASTKGPSVFPLAPSSKSTSGGTAALGCLVKDYFPEPVTVSWNSGALTSGVHTFPAVLQSSGLYSLSSVVTVPSSSLGTQTYICNVNHKPSDTKVDKKVEPKSCDKTHTCPPCPAPPVAGPSVFLFPPKPKDTLMISRTPEVTCVVVDVKHEDPEVKFNWYVDGVEVHNAKTKPREEEYNSTYRVVSVLTVLHQDWLNGKEYKCKVSNKALPAPIEKTISKAKGQPREPQVYTLPPSREEMTKNQVSLTCDVSGFYPSDIAVEWESDGQPENNYKTTPPVLDSDGSFFLYSKLTVDKSRWEQGDVFSCSVMHEALHNHYTQKSLSLSPGK
scFv-Fc heavy chain (anti-CD3 H1.30_L1.47): not shown
light chain (anti-MSLN VL): DIVMTQSPDSLAVSLGERATINCKASHDVGTSVAWYQQKPGQSPKLLIYWASTRHTGVPDRFTGSGSGTDFTLTISSLQAEDVAVYFCQQYSSYPLTFGAGTKLEIKRTVAAPSVFIFPPSDEQLKSGTASVVCLLNNFYPREAKVQWKVDNALQSGNSQESVTEQDSKDSTYSLSSTLTLSKADYEKHKVYACEVTHQGLSSPVTKSFNRGEC
notes: 1+1 Fab-scFv-Fc bsAb; VH H52N, VL WT (Kabat); also called MESO-C H1.4_L1
B2: XENP32560 (bispecific antibody)
Fab-Fc heavy chain (anti-MSLN VH): B1 Fab-Fc heavy chain (anti-MSLN VH) with N52H
scFv-Fc heavy chain (anti-CD3 H1.30_L1.47): not shown
light chain (anti-MSLN VL): B1 light chain (anti-MSLN VL) with H27Q
notes: 1+1 Fab-scFv-Fc bsAb; VH WT, VL H27Q (Kabat); also called MESO-C H1_L1.2
B3: XENP32569 (bispecific antibody)
heavy: B1 Fab-Fc heavy chain (anti-MSLN VH) with N52H, N54Q
scFv-Fc: not shown
light: B1 light chain (anti-MSLN VL) with D28S
notes: VH N53Q, VL D28S (Kabat); also called MESO-C H1.5_L1.3; copies: 1 + 1 + 1
B4: XENP32559 (bispecific antibody)
Fab-Fc heavy chain (anti-MSLN VH): B1 Fab-Fc heavy chain (anti-MSLN VH) with N52H
scFv-Fc heavy chain (anti-CD3 H1.30_L1.47): not shown
light chain (anti-MSLN VL): B1 light chain (anti-MSLN VL) with A25S
notes: 1+1 Fab-scFv-Fc bsAb; VH WT, VL A25S (Kabat); also called MESO-C H1_L1.1
B5: XENP32557 (bispecific antibody)
Fab-Fc heavy chain (anti-MSLN VH): B1 Fab-Fc heavy chain (anti-MSLN VH) with N52H, T101S
scFv-Fc heavy chain (anti-CD3 H1.30_L1.47): not shown
light chain (anti-MSLN VL): B1 light chain (anti-MSLN VL)
notes: 1+1 Fab-scFv-Fc bsAb; VH T97S, VL WT (Kabat); also called MESO-C H1.8_L1
B6: XENP32938 (bispecific antibody)
heavy: B1 Fab-Fc heavy chain (anti-MSLN VH) with N52H, E62Y
scFv-Fc: not shown
light: B1 light chain (anti-MSLN VL) with S92Y
notes: VH E61Y, VL S92Y as printed; also called MESO-C H1.13_L1.9; copies: 1 + 1 + 1
B7: XENP32565 (bispecific antibody)
Fab-Fc heavy chain (anti-MSLN VH): B1 Fab-Fc heavy chain (anti-MSLN VH) with N52H
scFv-Fc heavy chain (anti-CD3 H1.30_L1.47): not shown
light chain (anti-MSLN VL): B1 light chain (anti-MSLN VL) with H55E
notes: 1+1 Fab-scFv-Fc bsAb; VH WT, VL H55E (Kabat); also called MESO-C H1_L1.7
B8: XENP32939 (bispecific antibody)
heavy: B1 Fab-Fc heavy chain (anti-MSLN VH) with M50W, N52H
scFv-Fc: not shown
light: B1 light chain (anti-MSLN VL) with T31Q
notes: VH M50W, VL T37Q as printed; also called MESO-C H1.3_L1.13; copies: 1 + 1 + 1
B9: XENP32566 (bispecific antibody)
Fab-Fc heavy chain (anti-MSLN VH): B1 Fab-Fc heavy chain (anti-MSLN VH) with N52H
scFv-Fc heavy chain (anti-CD3 H1.30_L1.47): not shown
light chain (anti-MSLN VL): B1 light chain (anti-MSLN VL) with T56S
notes: 1+1 Fab-scFv-Fc bsAb; VH WT, VL T56S (Kabat); also called MESO-C H1_L1.8
B10: XENP32558 (bispecific antibody)
Fab-Fc heavy chain (anti-MSLN VH): B1 Fab-Fc heavy chain (anti-MSLN VH) with N52H, K106R
scFv-Fc heavy chain (anti-CD3 H1.30_L1.47): not shown
light chain (anti-MSLN VL): B1 light chain (anti-MSLN VL)
notes: 1+1 Fab-scFv-Fc bsAb; VH K100bR, VL WT (Kabat); also called MESO-C H1.9_L1

Legend:
[1] = target: T1, cyno MSLN (Macaca fascicularis (cynomolgus)); test: Octet BLI; bsAb on anti-human Fc sensor, cyno MSLN as analyte, one concentration
T1 construct: soluble antigen for Octet; also called cynomolgus MSLN

[2] = target: T2, human MSLN antigen (human, UniProt Q13421 296-580, limits assumed); test: Octet BLI; bsAb on anti-human Fc sensor, human MSLN as analyte, one concentration
T2 construct: Soluble antigen for BLI; also called Mesothelin; MESO
Text: (§1) Variants of MESO-C were engineered by introducing point substitutions into the variable heavy region (VH) and the variable light region (VL) to generate 11 VH variants and 16 VL variants (sequences for which are depicted in FIG. 18 as H1.1-H1.13 and in FIG. 19 as L1.1-L1.18). An additional 4 VL variants were generated by combining useful point substitutions (sequences for which are depicted in FIG. 19 as L1.19-L1.22). WT and variant variable heavy regions were paired with WT and variant variable light regions to generate variant variable regions (Fvs) which were produced in the context of anti-MSLN×anti-CD3 bispecific antibodies. The bispecific antibodies were screened for MSLN binding affinity using Octet®, a BioLayer Interferometry (BLI)-based method. Experimental steps for Octet® generally include the following: Immobilization (capture of ligand to a biosensor); Association (dipping of ligand-coated biosensors into wells containing the analyte); and Dissociation (returning of biosensors to well containing buffer). In an initial screening, anti-human Fc sensors were used to capture the bispecific mAbs and dipped into human MSLN antigen (one concentration to screen large library). The resulting dissociation constant of illustrative variants (KD), association rate (kₐ), dissociation rate (kd), as well as sensorgram response are depicted in FIG. 20. In further screening of favorite variants identified in the initial screen (and combination variants), bispecific mAbs were dipped into multiple concentrations of human MSLN antigen, data for which are depicted in FIG. 21 (from various screens).

[3] = target: T2, human MSLN antigen; test: Octet BLI; bsAb on anti-human Fc sensor, human MSLN as analyte, several concentrations
Text: as §1

T2 sequence (Q13421 other isoform, or with tags, fused parts or gaps limits assumed): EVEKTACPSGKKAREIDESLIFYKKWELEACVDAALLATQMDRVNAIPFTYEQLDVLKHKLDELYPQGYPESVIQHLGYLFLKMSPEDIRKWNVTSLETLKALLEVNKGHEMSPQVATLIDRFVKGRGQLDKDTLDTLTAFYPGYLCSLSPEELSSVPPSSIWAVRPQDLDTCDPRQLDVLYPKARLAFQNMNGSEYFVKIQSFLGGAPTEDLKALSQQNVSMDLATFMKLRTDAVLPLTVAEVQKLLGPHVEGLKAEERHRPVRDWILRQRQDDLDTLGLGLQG

| Binder | Kd [1] [nM] | Response [1] | koff [1] [s⁻¹] | kon [1] [M⁻¹ s⁻¹] | Kd [2] [nM] | Response [2] | koff [2] [s⁻¹] | kon [2] [M⁻¹ s⁻¹] | Kd [3] [nM] | Response [3] | koff [3] [s⁻¹] | kon [3] [M⁻¹ s⁻¹] |
| --- | --- | --- | --- | --- | --- | --- | --- | --- | --- | --- | --- | --- |
| B1 | 0.585 | 1.06 | 0.000337 | 575000 | 0.687 | 1.16 | 0.00037 | 539000 |  |  |  |  |
| B2 | 1.2 | 0.948 | 0.000762 | 634000 | 0.633 | 1.03 | 0.000383 | 605000 |  |  |  |  |
| B3 | 0.189 | 0.867 | 0.000125 | 660000 | 0.135 | 0.978 | 9.35e-05 | 693000 |  |  |  |  |
| B4 | 0.223 | 1.04 | 0.000128 | 575000 | 0.283 | 1.11 | 0.000161 | 569000 |  |  |  |  |
| B5 | 0.62 | 1.09 | 0.000321 | 518000 | 0.721 | 1.15 | 0.000374 | 519000 |  |  |  |  |
| B6 |  |  |  |  |  |  |  |  | 16.2 | 0.169 | 0.0103 | 635000 |
| B7 | 0.255 | 1 | 0.000151 | 592000 | 0.286 | 1.11 | 0.000169 | 590000 |  |  |  |  |
| B8 |  |  |  |  |  |  |  |  | 90.4 | 0.202 | 0.0383 | 424000 |
| B9 | 0.163 | 0.941 | 0.0001 | 616000 | 0.18 | 1.05 | 0.000113 | 627000 |  |  |  |  |
| B10 | 0.7 | 1.11 | 0.000166 | 238000 | 0.795 | 1.17 | 0.000198 | 249000 |  |  |  |  |
